The record followed here is publication PMC7924223, “Functionalization of the BCL6 BTB domain into a noncovalent crystallization chaperone” (IUCrJ, 2021).

This assay concerns the target BCL6 BTB domain (BCL6^BTB), residues 6-129 with C8Q, C67R and C84N (human, UniProt P41182 6-129, C8Q | C67R | C84N). The assay is described as follows: crystal structure; co-crystallization at 298 K; BCL6 proteins at 300 µM (monomer) in 20 mM HEPES pH 7.5, 300 mM NaCl, 3 mM β-mercaptoethanol; NCoR1^BBD1 peptide in 4:1, NCoR1^BBD2 peptide in 8:1 molar excess; the complex with nebulin^SH3-NCoR1^BBD1 purified by size-exclusion chromatography before crystallization. As to conditions: both partners purified. For orientation: Size exclusion chromatography separates by hydrodynamic size, large species first.

B1: NCoR1^BBD1 peptide (high-affinity BCL6-binding domain 1 of the corepressor NCoR1) (peptide)
peptide: GITTIKEMGRSIHEIPR
notes: source: synthetic peptide (GL Biochem Shanghai Ltd)
Turning to B1, the binding result is listed as “binds”.
